Among the data in paper PMC5869385 are Ki values, retold here.

The experiment addresses Torpedo muscle-type α1_(2)β1γδ nicotinic acetylcholine receptor (Torpedo marmorata (endogenous in electric organ)) (UniProt P02711). Kind of experiment: radioligand binding.

The term Ki denotes a measure of affinity in units of concentration, obtained from inhibition or displacement. A lower Ki goes with tighter binding. Substance “α-cobratoxin from Naja kaouthia (from UniProt P01391 1-71) (natural protein)” came in with a Ki of 0.397 nM.
